Reference: US20110070235A1
Several values for one entry are separate records, joined by “and”; a condition that tells them apart may be missing. Equal entries are not always repeated.

What was measured:
[1] = target: M2e; assay: peptide ELISA, mAb 5 ug/mL
[2] = target: M2 protein of A/Hong Kong/483/1997, expressed on cells (Influenza A virus A/Hong Kong/483/1997 (H5N1))

Row | Molecule | ELISA A450 [1] | FACS M2-HK MFI [2]
1 | TCN-032 (8I10) (antibody) | 0.13 | 
2 | 3252_C13 (antibody, V domains shown) VH: QVQLQESGPGLVKPSETLSLTCTVSGASISSDYWSWIRLPPGKGLEWIGYIYNRGSTKYTPSLKSRVTISLDTAENQFSLRLRSVTAADTAIYYCARHVGGHTYGIDYWGQGTLVTVSS VL: DIQMTQSPSSLSASVGDRVTITCRASQSISNYLNWYQHKPGEAPKLLNYAASSLQSGVPSRFSASGSGTDFTLTISSLQPEDFATYYCQQSYNTPITFGQGTRLEIK |  | 449 MFI
3 | 3420_I23 (antibody, V domains shown) VH: QVQLQESGPGLVKPSETLSVTCKVSGDSISSYSWSWIRQPPGKGLEWVGYLYYSGSTKYNPSLKSRTTISVDTSTNQLSLKLSFVTAADTAVYFCARTGSESTTGYGMDVWGQGTTVTVSS VL: DIQMTQSPSSLSASVGDRVTITCRASQSISTYLNWYQQKPGKAPKLLIYAASSLHSGVPSRFSGSGSGTDFALTISSLQPEDFATYYCQQSYSPPITFGQGTRLEIK |  | 112 MFI
4 | 3362_B11 (antibody, V domains shown) VH: QVQLQASGPGLVKPSETLSLTCTVSGDSITSGAYYWTWIRQHPGKGLEWIGYIYYSGNTYYNPSLKSRVTISLDTSKNQFSLKVNSVTAADTAVYYCARAASTSVLGYGMDVWGQGTTVTVSS VL: DIQMTQSPSSLSASVGDRVTITCRASQSISRYLNWYQQEPGKAPKLLVYAASSLQSGVPSRFSGSGSGTDFTLTISSLQPEDFATYYCQQSYSTPLTFGQGTRLEIK |  | 218 MFI
5 | 3255_J06 (antibody, V domains shown) VH: QVQLQESGPGLVKPSETLSLTCTVSGASISSDYWSWIRLPPGKGLEWIGYIYNRGSTKYTPSLKSRVTISLDTAENQFSLRLRSVTAADTAVYYCARHVGGHTYGIDYWGQGTLVTVSS VL: DIQMTQSPSSLSASVGDRVTITCRASQSISNYLNWYQHKPGEAPKLLNYAASSLQSGVPSRFSASGSGTDFTLSISGLQPEDFATYYCQQSYNTPITFGPGTRLEIK |  | 442 MFI
6 | 3244_H04 (antibody, V domains shown) VH: EVQLVESGGGLVQPGGSLRLSCTASGLSVSSTYMNWVRQAPGKGLEWVSVFYSETRTYYADSVKGRFTVSRHNSNNTLYLQMNSLRAEDTAVYYCARVQRLSYGMDVWGQGTTVTVSS VL: DIQMTQSPSSLSASVGDRVTITCRASQSISTYLNWYQKRPGKAPKLLVYGASSLQSGVPSRFSGSGSGTDFTLTIASLQPEDSAVYYCQQTYSIPLFGQGTRLEIK |  | 963 MFI
7 | 3245_O19 (antibody, V domains shown) VH: EVQLVESGGGLVQPGGSLRLSCTASGLSVSSTYMNWVRQAPGKGLEWVSVFYSETRTYYADSVKGRFTVSRHNSNNTLYLQMNSLRVEDTAVYYCARVQRLSYGMDVWGQGTTVTVSS VL: DIQMTQSPSSLSASVGDRVTITCRASQSISTYLNWYQKRPGKAPKLLVYGASTLQSGVPSRFSGSGSGTDFTLTIASLQPEDSATYYCQQTYSIPLFGQGTRLEIK |  | 919 MFI
8 | 3259_J21 (antibody, V domains shown) VH: QVQLQESGPRVVRPSETLSLTCTVSGGSISSYNWIWIRQPPGKGLEWIGHIYDYGRTFYNSSLQSRPTISVDASKNQLSLRLTSVTASDTAVYYCARPLGILHYYAMDLWGQGTTVTVSS VL: DIQMTQSPLSVSVSVGDRVTIACRASQSIDKFLNWYQQKPGKAPKLLIYGASNLHSGAPSRFSASGSGTDFTLTITNIQTEDFATYLCQQSFSVPAFGGGTKVEIK |  | 1670 MFI
9 | 3248_P18 (antibody, V domains shown) VH: QVQLQESGPGLVKPSETLSLTCTVSGGSISAYHWSWIRQPPGKGLEWIGHIFDSGSTYYNPSLKSRVTISLDASKNQLSLRLTSVTASDTAIYYCARPLGSRYYYGMDVWGQGTTVTVSS VL: DIQMTQSPSSLSASVGDRVTITCRASQSISRYLNWYQQKPGKAPKLLIYGASTLQNGAPSRFSGSGSGTDFTLTISSLQPEDSATYLCQQSYSVPAFGGGTKVEVK |  | 967 MFI
10 | TCN-032 (8I10) (antibody, V domains shown) VH: QVQLQESGPGLVKPSETLSLTCTVSGSSISNYYWSWIRQSPGKGLEWIGFIYYGGNTKYNPSLKSRVTISQDTSKSQVSLTMSSVTAAESAVYFCARASCSGGYCILDYWGQGTLVTVS VL: DIQMTQSPSSLSASVGDRVTITCRASQNIYKYLNWYQQRPGKAPKGLISAASGLQSGVPSRFSGSGSGTDFTLTITSLQPEDFATYYCQQSYSPPLTFGGGTRVEIK |  | 754 MFI and 1080 MFI
11 | 3136_G05 (antibody, V domains shown) VH: QVQLQESGPGLVKPSETLSLTCSVSGGSISSDFWSWIRQPPGKGLEWIGYVYNRGSTKYSPSLKSRVTISADMSKNQFSLNMSSVTAADTAVYYCAKNGRSSTSWGIDVWGKGTTVTVSS VL: DIQMTQSPSSLSASVGDRLTITCRASQSISTYLHWYQQKPGKAPKLLIYAASSLQSGVPSRFSGSRSGTDFTLTISSLQPDDFATYYCQQSYSPPLTFGPGTKVDMK |  | 109 MFI
12 | 3260_D19 (antibody, V domains shown) VH: DMQLVESGGGLVPPGGSLRLSCAASGFSVSDNYINWVRQAPGKGLDWVSVFYSADRTSYADSVKGRFTVSSHDSKNTVYLQMNSLRAEDTAVYYCARVQKSYYGMDVWGQGTTVTVSS VL: GIQMTQSPSSLSASVGDRVTITCRASQSISRYLNWYLQKPGKAPKLLISGASSLQSGVPSRFSGTGSGTEFTLTISSLQPEDFATYYCQQTFSIPLFGQGTKVEIK |  | 846 MFI
13 | 3242_P05 (antibody, V domains shown) VH: DMQLVESGGGLVPPGGSLRLSCAASGFSVSDNYINWVRQAPGKGLDWVSVFYSADRTSYADSVKGRFTVSSHDSKNTVYLQMNSLRAEDTAVYYCARVQKSYYGMDVWGQGTTVTVSS VL: GIQMTQSPSSLSASVGDRVTITCRASQSISRYLNWYLQKPGKAPKLLISGASSLQSGVPSRFSGTGSGTEFTLTISSLQPEDFATYYCQQTFSIPLFGQGTKVEIK |  | 596 MFI
14 | 3139_P23 (antibody, V domains shown) VH: QVQLQESGPRLVKPSESLSLTCTVSGGSISNSFWGWIRQPPGEGLEWIGYVYNSGNTKYNPSLKSRVTISRDTSKSQLYMKLRSVTAADTAVYYCARHDDASHGYSISWGHGTLVTVSS VL: DIQMTQSPSSLSASVGDRVTITCRASQTISTYLNWYQQKSGKAPKLLIYAASGLQSGVPSRFSGSGSGTDFTLTISSLQPEDFATYFCQQSYNTPLTFGQGTKVEIK |  | 110 MFI
15 | 3241_G23 (antibody, V domains shown) VH: QVQLQQSGPGLVKPSQTLSLTCTVSGGPVSGGGYSWNWIRQRPGQGLEWVGFMFHSGSPRYNPTLKSRITISVDTSKNLVSLKLSSVTAADTAVYFCARVGQMDKYYAMDVWGQGTTVTVSS VL: DIQMTQSPSSLSSSVGDRVTITCRASQSIGAYVNWYQQKAGKAPQVLIFGASNLQSGVPSRFSGSGSGTDFTLTISSLQPEDFATYFCQQTYSTPITFGQGTRLEIK |  | 1700 MFI
16 | 3253_P10 (antibody, V domains shown) VH: QVQLQESGPGLLKPSDTLALTCTVSGGSITSDYWSWIRQPPGRGLDWIGFFYNGGSTKYNPSLKSRVTISADTSKNQLSLKLTSVTAADTGVYYCARHDAKFSGSYYVASWGQGTRVTVSS VL: DIQMTQSPSSLSASVGDRVTISCRASQSISTYLNWYQQQPGKAPKVLISGATDLQSGVPSRFSGSGSGTDFTLTISSLQPEDFATYYCQQSYNTPLIFGQGTKLEIK |  | 43 MFI
17 | 3244_I10 (antibody, V domains shown) VH: QVQLQESGPGLLKPSDTLALTCTVSGGSITSDYWSWIRQPPGRGLDWIGFFYNGGSTKYNPSLKSRVTISADTSKNQLSLKLTSVTAADTGVYYCARHDAKFSGSYYVASWGQGTRVTVSS VL: DIQMTQSPSSLSASVGDRVTISCRASQSISTYLNWYQQQPGKAPKVLIFGATNLQSGVPSRFSGSGSGTDFTLTISSLQPEDFATYYCQQSYNTPLIFGQGTKLEIK |  | 434 MFI
18 | 3243_J07 (antibody, V domains shown) VH: QVQLQESGPGLLKPSDTLALTCTVSGGSITSDYWSWIRQPPGRGLDWIGFFYNGGSTKYNPSLKSRVTISADTSKNQLSLKLTSVTAADTGVYYCARHDVKFSGSYYVASWGQGTRVTVSS VL: DIQMTQSPSSLSASVGDRVTISCRASQSISTYLNWYQQQPGKAPKVLISGATNLQSGVPSRFSGSGSGTDFTLTISSLQPEDFATYYCQQSYNTPLIFGQGTKLEIK |  | 131 MFI
